Measurements taken from FireProtDB (doi:10.1006/jmbi.1996.0075).
Values joined by “and” are separate entries in the source; they are usually repeats but may differ in a detail not shown here. Equal entries are not always repeated.

Settings: Equus caballus, 20 °C, CD, reversible: yes; for unfolding free energy: Thermal

Chain of Cytochrome c wild type, P00004 (P00004 whole entry): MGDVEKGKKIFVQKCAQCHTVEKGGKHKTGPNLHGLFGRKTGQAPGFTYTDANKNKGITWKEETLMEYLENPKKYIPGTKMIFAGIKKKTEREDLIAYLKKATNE

For Cytochrome c wild type, P00004, the denaturant m value (pH 2, GdnHCl, glycine-HCl 5-10 mM, NaClO4 200 mM) was 1.58 kcal/mol/M and 1.24 kcal/mol/M and 1.12 kcal/mol/M, the unfolding free energy (pH 3.9, Sodium acetate 5-10 mM, NaCl) was 0.57 kcal/mol and the unfolding free energy (pH 6, Sodium phosphate 5-10 mM, NaCl) was 1.39 kcal/mol. For the same substance, the denaturant m value (pH 7, GdnHCl, Sodium phosphate 5-10 mM, NaCl) was 3.01 kcal/mol/M and 2.1 kcal/mol/M, the unfolding free energy (pH 7, Sodium phosphate 5-10 mM, NaCl) was 1.7 kcal/mol and the denaturant m value (pH 7, Urea, Sodium phosphate 5-10 mM, NaCl) was 1.2 kcal/mol/M and 0.86 kcal/mol/M.
